Experimental findings from a protein production outcome set (Wang et al. 2014) are described below.

This data set is described as follows: label from the status in PepcDB records.
As for “MMRIGLFLLTNLAVLVVAGIILSLFGVGSYHGAGGLNLGNLLVICFVFGMVGSLISLLMSKWMAKKTTGTEIIDPNAPRNQAEAWLLQTVAELSQRAGIQMPEVGIFPSYQSNAFATGWNKNDALVSVSTGLMERMNKDELRAVLAHEIGHVANGDMVTLALIQGVVNAFVMFFARVVGDFIDRNVFGRQDGEAPGMGYFAITIVLDIVFGILASAIVMWFSRHREYRADEAGARLAGKQAMISALLRLQAESEMPDQMPKEMKAFAIAEGKEQGFSLAALFQTHPSIEQRVAALQQLNCP”, the protein production entry is “failed”.

Take “MMRVGIIGAGNIGHMHAEAVAACENTLLTGVFDLDRERAQSLARASGTVAFASPDELYKASDGVVVASPNRTHADYAREAVAYGRSVLCEKPMAVSLLQAADMRALAAVAPGVCAVGFNYRYLNVIREARNRIGEGMLGRVVHVDVAFKRASALTRQHFTWRDSAAEGHTSGALGDLGVHLIDMLHHLFRSPVDLASCQVALRTKVAAKGGHAVEVDDHAFVSGRIEGGPSFTLTASKASQPEETGFTLAAMGSRGDLSHDSQDGPVLHLRTGIDWEQVKLLGPSRLDDPRGEVTGWGDSFLDQLHDWAGAVTASQRSGTLADFEDGYQAQQVLQELLRIGGRM”: the protein production entry is “failed”. With “MMRVLHISDTHFGTEREPVVHALHALADTLRPDLVVLGGDITQRARRGQFAAARRFIQALQRPVLAVPGNHDIPLFNLAARLFDPYGNYRRALGAVLEPVYEDDRLLAIGVNSTRAARRKNGEVSRTQAQRVAQRLRDARPGQLRVVALHHPVHAMVESDQRNLLIGREFAVPAWVDAGVDLILGGHIHLPYVAPLHGKAGEAGRRAWTVQAGTAVSRRVRGRVPNSVNLIDYAAQADSPACTVQRWDFQTDSGAFVLFGQQVLALNRARG” the entry was “failed”; with “MMSDSPQKLGRNEWNAYMDKVKAKDREAFAFVFRFYAPKLKQFAYKHVGNEQVAMEMVQETMATVWQKAHLYDGKKSALSTWIYTIIRNLCFDLLRKQKGKELHIHSDDIWPSEYYPPDMVDHYSPEQDMLKEQVVKFLDILPKNQRDVLQAVYLEELPHQQVAELFDIPLGTVKSRLRLAVEKLRHSMHTEQL”, “failed”; with “MMSEAIIHGIILAFGLIIPLGVQNVFVFNQGASQPNIWRAAPVVLTASICDTLLILIAVQGVSLVLLTFSWLTNSLYIIGFFFLLYMGFVIWRSNPSNDVKQEKSMPLKKQILFAASVSLLNPHAILDTIGVIGTNSIQYIGSEKWAFTLATIIVSWIWFISLALAGKFLKRLDSTGKTILLLNKFSGLIIWGVALYMLKQVIYS”, “failed”. Consider “MMTETVRTWRHIPQRYNLTGSKCLQCGNVFFPSRIICPECRRKGKLEELKFSGKGRIHSYSVINTPTDEFKDIAPYVVAIVELEEGARVTSQIVDCDPDSIEIGDEVEMVFRKVREEGEDGVISYGFKFKPKT”, for which the protein production entry is listed as “failed”. With “MMTLIRITSADDSRLNRLIPLYEESFPESERRKIGQLKRMIENHAPMYFNAIECDGELSGMFVYWDMGDFYYLEHLAVFPEMRNKKIGQQVLDYVAEHLKGVRLLEVEPTEDEMTTRRVNYYRRNGYEVLDKTYVQPSYHALEDACPLWIMGSEDSPRLAEQVERIKEEVYRQQVG” the entry was “not failed”. Take “MMWESESDGGVGVGGGGGREYGDGVLSSNKHGGVKTDGFELRGQSWFVATDIPSDLLVKIGDMNFHLHKYPLLSRSGKMNRLIYESRDPDPTILILDDLPGGPEAFELASKFCYGVPVDLTATNISGLRCAAEYLEMTEDLEEGNLIFKTEAFLSYVVLSSWRDSILVLKSCEKLSPWAENLQIVRRCSESIAWKACSNPKGIRWAYTGKAPSPSTTNFAGSSPRWNESKDSSFYCSPSRNTNSQPVPPDWWFEDVSILRIDHFVRVITAIKVKGMRFELLGAVIMHYAGKWLPGLIKEGGVAIAPAMSSAIGGGLGLGGDEMSISCGSNSSGGSSGPDWKGGLHMVLSAGKTNGHQDSVACLAGLGISPKDQRMIVESLISIIPPQKDSVTCSFLLRLLRAANMLKVAPALITELEKRVGMQFEQATLQDLLIPGYNNKGETMYDVDLVQRLLEHFLVQEQTEGSSPSRMSPSPSQSMYADIPRGNNNNGGGGGGNNQNAKMRVARLVDSYLTEVARDRNLPLTKFQVLAEALPESARTCDDGLYRAIDSYLKAHPTLSEHERKRLCRVMDCQKLSMDACMHAAQNERLPLRVVVQVLFSEQVKISNALANTSLKESTTLGEAMGTYQPMIPNRKTLIEATPQSFQEGWAAAKKDINTLKFELETVKTKYVELQNEMEVMQRQFEKTGKVKNTPSSSAWTSGWKKLSKLTKMSGQESHDISSGGEQAGVDHPPPRKPRRWRNSIS”: the protein production result was “failed”. As for “MMYFISDTHFYHENIINLNPEVRFKGFEIVILTNLLKVLKPEDTLYHLGDFTWHFNDKNEYLRIWKALPGRKILVMGNHDKDKESLKEYFDEIYDFYKIIEHKGKRILLSHYPAKDPITERYPDRQEMVREIYFKENCDLLIHGHVHWNREGIKCACKDYRIECINANVEWNDYKPISEREIDKLISYEKAKN”, the protein production entry is on record as “not failed”.

As for “MNAEHAVTLRAPAADWERSEREARQAAAYVAAFVGVPAVVAAAAALALFALTALVLLAPLVACVLTWAAWRYGRPERRGARRA”, the protein production result was “failed”. With “MNAIRYTKRECKDEKKITEFLNKARTGFLGLSTNDQPYVIPLNFVWHNHAIYFHGASEGRKIKMIEANPEVCFTICEDLGTIVSPVPAHTDTAYMSVIIFGTIEPVSAIEEGTEAMQQMLDKYVPGYYHSPLAASHVEKYRSSLGSRTAIYKISCRERTAKVNEPIESLKFYPGRNVSVDKDSR” the entry was “not failed”; with “MNAKEILVHSLRLLENGDARGWCDLFHPEGVLEFPYAPPGWKTRFEGRETIWAHMRLFPEHLTVRFTDVQFYETADPDLAIGEFHGDGVATVSGGKLAQDYISVLRTRDGQILLYRDFWNPLRHLEALGGVEAAAKIVQGA”, “not failed”; with “MNAKRWVALGIVFALLIVSALAKFTSSQIASTEESSPTFVESLFADTGELTETVIEEGGDDTIAVLSVDGTIQDTGDSGSLFGDAGYDHSFFMQQLEQVRNDDYIQGVLLYVNSPGGGVMESAQIRDKILQIQKERNIPFYVSMGSMAASGGYYISAPADKIFASKETLTGSLGVIMQGYDYSELMKKLGVSDNTIKSGEYKDIMSGTRPMTEDEKKIMQSMIDDSYNEFVKVVAKGRGMSAEKVRKIADGRIYDGRQAKENGLIDEFGYQEDALEALKKEQGLADATVIQYDVPEDFSSLFSVAAQKISGQNADISQLIKLTGTLKAPRMMYLYGE”, “failed”. With “MNAPGLAIEGLGVAYGARTVIAGLSLGPLPHGTLTALLGPNGSGKSTLLKAVAGLLPARGGAIALDGQRLDQADLAQRAQQVAYLPQGLPADVHLRVFESVLVAARAHGGEAAGQIGPPAIAALLERLGIGHLALQFLDELSGGQKQLVGLAQALIRRPRVLLLDEPLSALDPNYQFHVMDLLRQETRDHGLITIAALHDINIALRHADQALLIRAGELAAAGEPAAVIDAPMLARVYGIQARVERCSRGHPHVLVDGVAGPVR” the entry was “failed”; with “MNAPTVFESFSPDSGGVKTQLIIRGQNFGTDTAYLKVTVNNKRAAIVGVADDVIYAIVPARADTGYVRLFVGKDDNVEEYASQTKFIYQFKRNVTTLMGRQGQSGRDDGPYAECKLQRPWFALADKDGALFFIDEGRGQNKNGALRRAQEGWVETLVQNSSGPFQSPTCLAFNPKQDTLYISNMSYGSDIKTSFNILYVTREGGFMDVKGLCKFEKAETQGLAVHPQTGEIFFCNKSGGYIYRFNGPDYEDYEPLFQINRADKIDTRMVFNPEGTALFVVVCNRHCIYKVPYNALTHTFGEPELFAGGWDESGYVNGSGVTARFDNPRQPAFDQDGNMFVPEYGRHTIRKITPTGEVSLYAGLPGQAGFTDGLPEKARFNKPECVTVYLDNSLYVADRDNHLIRRVTVELEHHHHHH”, “failed”.

“MNAYSQSLAPANTPLRETFSLDGTWEFRHETDRAWRHAKVPAHWQACFEDLAVSFGSATYRRTFTLPAEWSAREIAIRFGAVSDLATVSINGTEIGRHEGGYLPFEFVIPPALLKAENTVEVLACLPDAYRDESGADFAEIPHGKQSWYGPQGGIWQSVLIEARDPAHISSLRLDPIWPEARLDLKARFASMVAGSLKIEIIGPQGMPVFTGNIPAAGNTLDHSIQLDSVAPWSPDSPNLYTITTILSADGVEIDSRQESFGFRRFEAKDGFLHLNGKPLYLRAALDQDYYPDGFGAPPSLDLLEDQLRKAKAMGLNCLRCHIKVPDPRYYEVADRLGMLIWSEIPNIETFTPASAERLRTTMEGILARDGNHPSIVIWTLINEDWGTRLREAAEQRQWISDMVDWLRVEDPLRLVVDNSACFPNVHVKTDINDYHFYRTAVDRREEWDTLCREFAGNADWTFSTEKEAVRTRKEPLVLSEFGVWGLPDPARLREKNGRDPWWMAYGATWADGTALPQGIEARFRELALEKVFGDLGRFIEKVQWYQYMNLKYEIEVIRTHAPIGGYVITELTDVHWEGNGLMDMARNPRVFAKALPAVNSDIVIAPGAARHAVYEGQTASFDIKVSSGGTALPEGSRLVWEFGAEKGEIPLPAMAPMQVHNAPITTTADAVPVPAIQKARFQVVSPDGSVLSQNFETLAVYGKRDALPPIRFASNDDGISERLSALGHVSVSPHEADVFITKDIDADRVEAIHSGQRVLQIVDKDPGRLRDDAPPRDGPMSIEIDPGAGGMVSGPYFSFPGYNLVNRHKSIWRGDWVGNFSWLRRDGVFAHVPGGPLFDLSFTGVAPHQVMTGLRPWEFQGRVYAGVVIGWVHKPAAFIIEKRLGRGKLVATTFRLHQEAPDVDPLATALYDGLFALATRP”: the protein production result is reported as “failed”. With “MNAYYIQDRLEAQSWARHYQQIAREEKEAELADDMEKGLPQHLFESLCIDHLQRHGASKKAITRAFDDDVEFQERMAEHIRYIVETIAHHQADIDSEV” the entry was “failed”. With “MNCIPQYYKNRVCLNVLAGSIKNAKEVYDACDGHVLIGVLSKNYSTVEAAIEDMKKYSKEIDNAISVGLGAGDPNQSNMVSQISKELQPQHINQVFTGVATSRALLGQNYSIINGLVSPTGKPGFVKISTGPLSSKEKDGIVPIETAIAMMKDMGGSSIKFFPMGGLKTKDEYIEVAKACAKHNFYLEPTGGIDLDNFKEIVQIALDAGVEKVIPHVYTSIIDKETGETKVEDIGVLYKIMKELLG” the entry was “not failed”; with “MNCRKTALLKTGRVARLVLCSAMLGAAIPTMALAIGGASGAHVDYQVQGKLGEVIMNPYDIAPLTAIIKNGGYVLKDVTVRIVPKKDGQEIKYQVANKHLLTHGGIPVFGMYPDYVNTVEVEYSRLYNGKWEQAKESYTLYTPPVYTEPNATKTQKAALFSGADVKKVDKKFSDRLYFVNNFLHKAGKGTRAVWNNPTGGALEWNYYPQNFIVDTKGEVRWYMNANPIYDLKSIYNAGVMMGFKQNNDGAMSWGFGQRYVKYDIMGKEVFNRELPAGYNDFSHSMDNSPNGNYFLRVGSSNLKRADGKNVRTVRDVIIEVDPSSGLVQDEWRLFDILDPYRDVNFKVLDQGAVCLNIDASKAGHTMSAEDLAKQDANDKFGDIVGVGPGRNWAHVNSVDHDAEDDSIIISSRHQSAVIKIGRDKQIKWIMGSPEGWKKEYQGKLLTPVDSKGNKIECEAGGSKCPGYENDEGGFDWTWTQHTAFKIDSKSKGDIIYVSVFDNGDSRGMEQPALPSMKYSRAVIYKIDQKKMTVEQIWEFGKERGNGWYSPVTSLTEYQTDKDSVFVYSATAGADFDINTGAFKTDPNPYIMEFNYGSKEPAVEIQLKDTTGYQAMPFSVDKAFTK”, “failed”; with “MNDALHIGLPPFLVQANNEPRVLAAPEARMGYVLELVRANIAADGGPFAAAVFERDSGLLIAAGTNRVVPGRCSAAHAEILALSLAQAKLDTHDLSADGLPACELVTSAEPCVMCFGAVIWSGVRSLVCAARSDDVEAIGFDEGPRPENWMGGLEARGITVTTGLLRDAACALLREYNACNGVIYNARCGVHK”, “not failed”.
